In the RNAGym collection of RNA variant scans (doi:10.7554/elife.90254) one finds self-cleavage data, which are given here for 167 variants.

B1: OR4K15 (parent)
chain: GUUAACGGUCAUAGGCCAUGGAAACUAGGAGCACCAUUUCGCUGCCAGUGAAGAAAUGAACAAAGAAAAUCUGGGCCAGGCAGGCAUCAAAAGAAAUAGUCUUGCGCUCAACCAGAAAGUCUGUAAUCAUUUUAAGGGUA

The series covers variants of B1. The experiment in a line: self-cleavage, relative activity (ratio to wild type); higher = more cleavage; in vitro, sequencing; the parent is a self-cleaving ribozyme.
As to G84A A94G, the self-cleavage came to 0.98.
In the case of G1U A114G it was 0.33; in that of A69G A117U, 0.97; in that of A11U A64G, 1.56.
For A30G C35A the value was 0.7; for A82G A94G, 0.32.
In the case of U37A A126G it was 0.44.
With C121U A135G, the self-cleavage was 2.01.
For U12A A135G, the self-cleavage came out at 1.47.
As to A51G A95U, the self-cleavage came to 0.89.
For A27G A125G the value was 0.26; for A54G A95U, 1.53; for A5G G99A, 0.66.
For G14A A140G the value was 1.89.
For A98C A117G the value was 2.47; for U9C C35A, 1.71; for A11U U49G, 1.14.
Take A4G U49C: the self-cleavage is 0.82.
In the case of G104A A111G it was 0.01.
For A66G U103A the value was 0.32; for A67G A117C, 0.17; for C10A C77U, 1.18.
For A13G A55U the value was 1.2; for A68G A92G, 1.55; for U72C G84U, 0.35.
On to G1U C105A, for which the self-cleavage amounted to 0.03.
In the case of A69U U120A it was 1.84; in that of A11G G58U, 0.79; in that of A60U U102C, 2.8.
In the case of A116G U133G it was 0.82; in that of C16U A140G, 1.64.
With G44U G137U, the self-cleavage was found to be 1.87.
For U2C A30G the value was 1.22; for U26C U43A, 1.29; for C40U A89G, 1.33.
For A30G C113U the value was 0.07.
For C107U A135G the value was 0.01; for A117C U139C, 0.68.
Turning to U70A U108C, the self-cleavage was found to be 0.01.
For G83U, the self-cleavage came out at 0.45.
U2C U103C: the self-cleavage worked out at 0.99.
For U19A A66U the value was 1.07; for A54G G93A, 1.21; for U43A A129G, 0.65.
In the case of A36U U130C it was 1.45.
For U2C A60U the value was 1.67; for G50U A52G, 0.42; for C16A A56C, 0.52.
As to U70G A82U, the self-cleavage turned out to be 0.2.
For G53U A60U the value was 1.71.
In the case of C17U U38A it was 1.03; in that of A5G G137U, 1.62.
In the case of A13G G104A it was 0.06; in that of A64G A110U, 1.1.
Take A66G U124C: the self-cleavage turned out to be 0.76.
In the case of A18C A52G, the self-cleavage stood at 1.51.
For A82C A96G the value was 0.11; for A47G G99U, 0.51.
Take A27G U70C: the self-cleavage worked out at 0.56.
For the variant A82U A92U, the self-cleavage is 0.26.
For A63U U103C the value was 1.58; for U19C A23G, 0.88; for A59G A129U, 0.86.
In the case of A66C U131A it was 1.1; in that of C46U C113A, 0.01.
In the case of A110G U130C it was 0.09; in that of A4G U57C, 0.86.
For the variant C35A A94G, the self-cleavage was 2.34.
In the case of U57A A129G it was 0.9; in that of G104A U132C, 0.04.
For A52G A95C the value was 0.6; for A67G C107A, 0.04.
In the case of A18G U43C it was 1.52; in that of A54G G123U, 1.75.
Regarding A11G C46U, the self-cleavage came out at 0.77.
For A94G A140U, the self-cleavage was found to be 0.72.
In the case of A114G U122A it was 0.39.
For U100C A129U the value was 1.49.
For U43A U131C the value was 0.91; for U19C U72A, 0.33.
Turning to U37A U102C, the self-cleavage turned out to be 1.85.
With A30U U132C, the self-cleavage came out at 1.33.
In the case of A56G U130C, the self-cleavage was 1.63.
For U72A U103C the value was 0.14; for A30G A67C, 1.15.
For U131A U133A the value was 0.95.
For U72A U130C the value was 0.13; for G28U A52G, 1.37.
A33G U49C: the self-cleavage was determined as 0.5.
In the case of A68U A86G it was 1.44; in that of A125G U133C, 1.09.
For A51G G104A the value was 0.03; for C17U U108C, 0; for A62G U87C, 0.88.
Take A95G A129U: the self-cleavage worked out at 1.52.
For A24G A51G the value was 1.27; for U19A A78U, 0.35; for U57C U139C, 1.94.
For A18U A55C the value was 1.22; for A4C, 0.61.
For A59G G79A the value was 0.28; for G14A A66G, 0.8.
With A68U U127C, the self-cleavage was 0.82.
For A66U U130C the value was 1.34; for A33G A59G, 0.98.
For A23G G41A the value was 1.29; for U38A A68G, 0.82; for U38A A52G, 1.63.
In the case of U3C U70C it was 0.76; in that of A51G A52U, 1.49.
A54G G75A: the self-cleavage came to 0.14.
For G44A A117G the value was 1.66; for U12A U103C, 0.14; for A62U U97C, 0.96.
In the case of A22G A95G it was 1.75; in that of A22U U49C, 0.77.
In the case of A90G A98U it was 1.62; in that of A11G C71G, 0.34; in that of U72A A98G, 0.04.
Consider A27G A47G, for which the self-cleavage is 0.68.
In the case of C45A U131C it was 0.26; in that of A36U U122C, 1.15; in that of A36U A92G, 1.61.
For A4U U57G the value was 0.74.
Take U49C A98U: the self-cleavage is 2.55.
For U9A A24U the value was 2.1.
A62C A140U: the self-cleavage turned out to be 1.7.
As for A13U C35A, the self-cleavage was determined as 1.88.
In the case of A67G A69G it was 0.77; in that of A13G G123C, 1.35.
As for G115U A117G, the self-cleavage turned out to be 0.39.
For U102C U132C the value was 2.04; for A5U A22G, 0.69.
For A51U U87C the value was 0.54.
As for U39A A63G, the self-cleavage came to 1.95.
For U70C A98G the value was 0.41.
For C6G U19A the value was 1.65.
In the case of A54G U133C it was 1.88; in that of U124A, 0.69.
Turning to A55U A94U, the self-cleavage amounted to 0.43.
In the case of G138A it was 0.93; in that of U102A U131C, 0.62; in that of A69U A114G, 2.05.
In the case of A96G A118U it was 0.79; in that of G28A A140G, 2; in that of A51U A94C, 0.55.
For A89G A129G the value was 1.06; for A30G G115U, 0.21; for U72G A94G, 0.09.
Turning to C6A A125G, the self-cleavage was 0.29.
In the case of A67G A135G it was 2.06; in that of G28A A33G, 0.69; in that of U132C A140G, 1.79.
A92G A134U: the self-cleavage was found to be 2.03.
As to U2A U49C, the self-cleavage is 1.68.
Regarding G15A A95G, the self-cleavage amounted to 1.73.
U38A A51G: the self-cleavage was found to be 1.33.
For A22G A134G the value was 1.02; for G21C A126G, 1.63.
For the variant U103C U130C, the self-cleavage turned out to be 0.57.
For A24C A60G the value was 1.17; for U26G A89C, 1.29.
In the case of U70A U103C it was 0.68.
Regarding U19A C35A, the self-cleavage came out at 0.65.
Take A56G C101A: the self-cleavage was 0.12.
For G31A C32U the value was 1.42; for U49C U127G, 1.49.
